What all share (experiment): cell-based or functional assay
The target in test [1] is T1, human amylin 3(a) receptor (human calcitonin receptor co-expressed with RAMP-3) (human, UniProt P30988 25-474; O60896 24-148, limits assumed).
T1 sequence (looked up) 1: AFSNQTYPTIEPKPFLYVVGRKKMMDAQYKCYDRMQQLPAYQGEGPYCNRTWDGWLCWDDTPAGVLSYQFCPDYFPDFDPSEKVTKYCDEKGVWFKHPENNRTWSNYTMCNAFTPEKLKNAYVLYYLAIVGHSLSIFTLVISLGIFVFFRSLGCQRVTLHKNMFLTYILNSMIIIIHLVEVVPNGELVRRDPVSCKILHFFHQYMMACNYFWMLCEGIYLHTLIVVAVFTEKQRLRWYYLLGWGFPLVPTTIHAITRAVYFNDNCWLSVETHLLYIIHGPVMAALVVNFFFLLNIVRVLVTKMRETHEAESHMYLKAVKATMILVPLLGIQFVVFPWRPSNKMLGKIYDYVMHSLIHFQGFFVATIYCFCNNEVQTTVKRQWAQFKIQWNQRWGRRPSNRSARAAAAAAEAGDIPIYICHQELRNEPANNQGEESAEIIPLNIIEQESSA
T1 sequence (looked up) 2: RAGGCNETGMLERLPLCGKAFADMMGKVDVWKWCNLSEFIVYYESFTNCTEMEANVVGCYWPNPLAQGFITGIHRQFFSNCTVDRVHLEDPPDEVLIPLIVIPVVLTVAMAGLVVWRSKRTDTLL

Test [2] addresses T2, human calcitonin receptor (human, UniProt P30988 25-474).
T2 sequence (looked up): T1 sequence (looked up) 1

For test [3], the target named is T3, human calcitonin receptor (human, UniProt P30988 25-474).
T3 sequence (looked up): T1 sequence (looked up) 1
This is another data set of the same source.

Read-outs that look alike come from different tables or passages of the source. Numbered stars: 1 amine (or outer) side, 2 acyl side, 3 side chain; on linkers, the order of the positions; unused ones are H or OH. Bridge positions count the residues as written; N and C are the ends. Side chains are listed from the residue outwards. Ends that are not written are not given here. * marks the point of attachment. C20 diacid = O=C(O)CCCCCCCCCCCCCCCCCCC(=O)*; γGlu = O=C(O)[C@H](CCC(=O)[*:2])N[*:1]; AEEA = NCCOCCOCC(=O)O

B1: N^ε1-[(4S)-4-carboxy-4-[[(4S)-4-carboxy-4-(19-carboxynonadecanoylamino)butanoyl]amino]butanoyl]-[Glu14,Arg17,Pro21,Pro27,His34]-h-amylin (peptide)
peptide: K([γGlu-γGlu-C20 diacid])CNTATCATQRLAEFLRHSSPNFGAIPSSTNVGHNTY-NH2
modifications: disulfide 2-7; N-terminus assumed
SMILES: CC[C@H](C)[C@H](NC(=O)[C@H](C)NC(=O)CNC(=O)[C@H](Cc1ccccc1)NC(=O)[C@H](CC(N)=O)NC(=O)[C@@H]1CCCN1C(=O)[C@H](CO)NC(=O)[C@H](CO)NC(=O)[C@H](Cc1c[nH]cn1)NC(=O)[C@H](CCCNC(=N)N)NC(=O)[C@H](CC(C)C)NC(=O)[C@H](Cc1ccccc1)NC(=O)[C@H](CCC(=O)O)NC(=O)[C@H](C)NC(=O)[C@H](CC(C)C)NC(=O)[C@H](CCCNC(=N)N)NC(=O)[C@H](CCC(N)=O)NC(=O)[C@@H](NC(=O)[C@H](C)NC(=O)[C@@H]1CSSC[C@H](NC(=O)[C@@H](N)CCCCNC(=O)CC[C@H](NC(=O)CC[C@H](NC(=O)CCCCCCCCCCCCCCCCCCC(=O)O)C(=O)O)C(=O)O)C(=O)N[C@@H](CC(N)=O)C(=O)N[C@@H]([C@@H](C)O)C(=O)N[C@@H](C)C(=O)N[C@@H]([C@@H](C)O)C(=O)N1)[C@@H](C)O)C(=O)N1CCC[C@H]1C(=O)N[C@@H](CO)C(=O)N[C@@H](CO)C(=O)N[C@H](C(=O)N[C@@H](CC(N)=O)C(=O)N[C@H](C(=O)NCC(=O)N[C@@H](Cc1c[nH]cn1)C(=O)N[C@@H](CC(N)=O)C(=O)N[C@H](C(=O)N[C@@H](Cc1ccc(O)cc1)C(N)=O)[C@@H](C)O)C(C)C)[C@@H](C)O
notes: also called compound 87
B1: the “hAmylin-R funct. EC50” value in test [1] is 285 pM. For the same molecule, in test [2], the “Ratio hCT/hAmylin funct.” value was determined as 3.8 and the “hCTR funct. EC50” value came out at 1100 pM.

B2: N^ε1-[2-[2-[2-(19-carboxynonadecanoylamino)ethoxy]ethoxy]acetyl]-[His14,Arg17,Pro21,Pro27]-h-amylin (peptide)
peptide: K([AEEA-C20 diacid])CNTATCATQRLAHFLRHSSPNFGAIPSSTNVGSNTY-NH2
modifications: disulfide 2-7; N-terminus assumed
SMILES: CC[C@H](C)[C@H](NC(=O)[C@H](C)NC(=O)CNC(=O)[C@H](Cc1ccccc1)NC(=O)[C@H](CC(N)=O)NC(=O)[C@@H]1CCCN1C(=O)[C@H](CO)NC(=O)[C@H](CO)NC(=O)[C@H](Cc1c[nH]cn1)NC(=O)[C@H](CCCNC(=N)N)NC(=O)[C@H](CC(C)C)NC(=O)[C@H](Cc1ccccc1)NC(=O)[C@H](Cc1c[nH]cn1)NC(=O)[C@H](C)NC(=O)[C@H](CC(C)C)NC(=O)[C@H](CCCNC(=N)N)NC(=O)[C@H](CCC(N)=O)NC(=O)[C@@H](NC(=O)[C@H](C)NC(=O)[C@@H]1CSSC[C@H](NC(=O)[C@@H](N)CCCCNC(=O)COCCOCCNC(=O)CCCCCCCCCCCCCCCCCCC(=O)O)C(=O)N[C@@H](CC(N)=O)C(=O)N[C@@H]([C@@H](C)O)C(=O)N[C@@H](C)C(=O)N[C@@H]([C@@H](C)O)C(=O)N1)[C@@H](C)O)C(=O)N1CCC[C@H]1C(=O)N[C@@H](CO)C(=O)N[C@@H](CO)C(=O)N[C@H](C(=O)N[C@@H](CC(N)=O)C(=O)N[C@H](C(=O)NCC(=O)N[C@@H](CO)C(=O)N[C@@H](CC(N)=O)C(=O)N[C@H](C(=O)N[C@@H](Cc1ccc(O)cc1)C(N)=O)[C@@H](C)O)C(C)C)[C@@H](C)O
notes: also called compound 90
In the case of B2, the “hAmylin-R funct. EC50” value in test [1] amounted to 33 pM. In addition, in test [2], the “Ratio hCT/hAmylin funct.” value amounted to 7.2 and the “hCTR funct. EC50” value amounted to 236 pM.

B3: N^ε1-[2-[2-[2-(19-carboxynonadecanoylamino)ethoxy]ethoxy]acetyl]-[Arg17,Pro21,Pro27,His34]-h-amylin (peptide)
peptide: K([AEEA-C20 diacid])CNTATCATQRLANFLRHSSPNFGAIPSSTNVGHNTY-NH2
modifications: disulfide 2-7; N-terminus assumed
SMILES: CC[C@H](C)[C@H](NC(=O)[C@H](C)NC(=O)CNC(=O)[C@H](Cc1ccccc1)NC(=O)[C@H](CC(N)=O)NC(=O)[C@@H]1CCCN1C(=O)[C@H](CO)NC(=O)[C@H](CO)NC(=O)[C@H](Cc1c[nH]cn1)NC(=O)[C@H](CCCNC(=N)N)NC(=O)[C@H](CC(C)C)NC(=O)[C@H](Cc1ccccc1)NC(=O)[C@H](CC(N)=O)NC(=O)[C@H](C)NC(=O)[C@H](CC(C)C)NC(=O)[C@H](CCCNC(=N)N)NC(=O)[C@H](CCC(N)=O)NC(=O)[C@@H](NC(=O)[C@H](C)NC(=O)[C@@H]1CSSC[C@H](NC(=O)[C@@H](N)CCCCNC(=O)COCCOCCNC(=O)CCCCCCCCCCCCCCCCCCC(=O)O)C(=O)N[C@@H](CC(N)=O)C(=O)N[C@@H]([C@@H](C)O)C(=O)N[C@@H](C)C(=O)N[C@@H]([C@@H](C)O)C(=O)N1)[C@@H](C)O)C(=O)N1CCC[C@H]1C(=O)N[C@@H](CO)C(=O)N[C@@H](CO)C(=O)N[C@H](C(=O)N[C@@H](CC(N)=O)C(=O)N[C@H](C(=O)NCC(=O)N[C@@H](Cc1c[nH]cn1)C(=O)N[C@@H](CC(N)=O)C(=O)N[C@H](C(=O)N[C@@H](Cc1ccc(O)cc1)C(N)=O)[C@@H](C)O)C(C)C)[C@@H](C)O
notes: also called compound 91
As for B3, the “hAmylin-R funct. EC50” value in test [1] amounted to 40 pM. Further, in test [2], the “Ratio hCT/hAmylin funct.” value was found to be 36.9 and the “hCTR funct. EC50” value was 1480 pM.

B4: N^ε1-[2-[2-[2-[[2-[2-[2-[[(4S)-4-carboxy-4-(19-carboxynonadecanoylamino)butanoyl]amino]ethoxy]ethoxy]acetyl]amino]ethoxy]ethoxy]acetyl]-[Arg17,Pro21,Pro27,Arg34 … (peptide)
peptide: K([AEEA-AEEA-γGlu-C20 diacid])CNTATCATQRLANFLRHSSPNFGAIPSSTNVGRNTY-NH2
modifications: disulfide 2-7; N-terminus assumed
SMILES: CC[C@H](C)[C@H](NC(=O)[C@H](C)NC(=O)CNC(=O)[C@H](Cc1ccccc1)NC(=O)[C@H](CC(N)=O)NC(=O)[C@@H]1CCCN1C(=O)[C@H](CO)NC(=O)[C@H](CO)NC(=O)[C@H](Cc1c[nH]cn1)NC(=O)[C@H](CCCNC(=N)N)NC(=O)[C@H](CC(C)C)NC(=O)[C@H](Cc1ccccc1)NC(=O)[C@H](CC(N)=O)NC(=O)[C@H](C)NC(=O)[C@H](CC(C)C)NC(=O)[C@H](CCCNC(=N)N)NC(=O)[C@H](CCC(N)=O)NC(=O)[C@@H](NC(=O)[C@H](C)NC(=O)[C@@H]1CSSC[C@H](NC(=O)[C@@H](N)CCCCNC(=O)COCCOCCNC(=O)COCCOCCNC(=O)CC[C@H](NC(=O)CCCCCCCCCCCCCCCCCCC(=O)O)C(=O)O)C(=O)N[C@@H](CC(N)=O)C(=O)N[C@@H]([C@@H](C)O)C(=O)N[C@@H](C)C(=O)N[C@@H]([C@@H](C)O)C(=O)N1)[C@@H](C)O)C(=O)N1CCC[C@H]1C(=O)N[C@@H](CO)C(=O)N[C@@H](CO)C(=O)N[C@H](C(=O)N[C@@H](CC(N)=O)C(=O)N[C@H](C(=O)NCC(=O)N[C@@H](CCCNC(=N)N)C(=O)N[C@@H](CC(N)=O)C(=O)N[C@H](C(=O)N[C@@H](Cc1ccc(O)cc1)C(N)=O)[C@@H](C)O)C(C)C)[C@@H](C)O
notes: also called compound 95
With B4, the “hAmylin-R funct. EC50” value in test [1] came to 651 pM. For the same molecule, in test [2], the “Ratio hCT/hAmylin funct.” value was 33 and the “hCTR funct. EC50” value amounted to 21500 pM.

B5: N{-1}-[(4S)-4-carboxy-4-(19-carboxynonadecanoylamino)butanoyl]-Gly[Arg1,His14,Arg17,Pro21,Pro27]-h-amylin (peptide)
peptide: {C20 diacid-γGlu}-GRCNTATCATQRLAHFLRHSSPNFGAIPSSTNVGSNTY-NH2
modifications: disulfide 3-8
SMILES: CC[C@H](C)[C@H](NC(=O)[C@H](C)NC(=O)CNC(=O)[C@H](Cc1ccccc1)NC(=O)[C@H](CC(N)=O)NC(=O)[C@@H]1CCCN1C(=O)[C@H](CO)NC(=O)[C@H](CO)NC(=O)[C@H](Cc1c[nH]cn1)NC(=O)[C@H](CCCNC(=N)N)NC(=O)[C@H](CC(C)C)NC(=O)[C@H](Cc1ccccc1)NC(=O)[C@H](Cc1c[nH]cn1)NC(=O)[C@H](C)NC(=O)[C@H](CC(C)C)NC(=O)[C@H](CCCNC(=N)N)NC(=O)[C@H](CCC(N)=O)NC(=O)[C@@H](NC(=O)[C@H](C)NC(=O)[C@@H]1CSSC[C@H](NC(=O)[C@H](CCCNC(=N)N)NC(=O)CNC(=O)CC[C@H](NC(=O)CCCCCCCCCCCCCCCCCCC(=O)O)C(=O)O)C(=O)N[C@@H](CC(N)=O)C(=O)N[C@@H]([C@@H](C)O)C(=O)N[C@@H](C)C(=O)N[C@@H]([C@@H](C)O)C(=O)N1)[C@@H](C)O)C(=O)N1CCC[C@H]1C(=O)N[C@@H](CO)C(=O)N[C@@H](CO)C(=O)N[C@H](C(=O)N[C@@H](CC(N)=O)C(=O)N[C@H](C(=O)NCC(=O)N[C@@H](CO)C(=O)N[C@@H](CC(N)=O)C(=O)N[C@H](C(=O)N[C@@H](Cc1ccc(O)cc1)C(N)=O)[C@@H](C)O)C(C)C)[C@@H](C)O
notes: also called compound 99
Consider B5, for which the “hCTR funct. EC50” value in test [3] stood at 818 pM.

B6: N^-1-[(4S)-4-carboxy-4-(19-carboxynonadecanoylamino)butanoyl]-Gly[Arg1,His14,Arg17,Pro21,Pro27,His34]-h-amylin (peptide)
peptide: {C20 diacid-γGlu}-GRCNTATCATQRLAHFLRHSSPNFGAIPSSTNVGHNTY-NH2
modifications: disulfide 3-8
SMILES: CC[C@H](C)[C@H](NC(=O)[C@H](C)NC(=O)CNC(=O)[C@H](Cc1ccccc1)NC(=O)[C@H](CC(N)=O)NC(=O)[C@@H]1CCCN1C(=O)[C@H](CO)NC(=O)[C@H](CO)NC(=O)[C@H](Cc1c[nH]cn1)NC(=O)[C@H](CCCNC(=N)N)NC(=O)[C@H](CC(C)C)NC(=O)[C@H](Cc1ccccc1)NC(=O)[C@H](Cc1c[nH]cn1)NC(=O)[C@H](C)NC(=O)[C@H](CC(C)C)NC(=O)[C@H](CCCNC(=N)N)NC(=O)[C@H](CCC(N)=O)NC(=O)[C@@H](NC(=O)[C@H](C)NC(=O)[C@@H]1CSSC[C@H](NC(=O)[C@H](CCCNC(=N)N)NC(=O)CNC(=O)CC[C@H](NC(=O)CCCCCCCCCCCCCCCCCCC(=O)O)C(=O)O)C(=O)N[C@@H](CC(N)=O)C(=O)N[C@@H]([C@@H](C)O)C(=O)N[C@@H](C)C(=O)N[C@@H]([C@@H](C)O)C(=O)N1)[C@@H](C)O)C(=O)N1CCC[C@H]1C(=O)N[C@@H](CO)C(=O)N[C@@H](CO)C(=O)N[C@H](C(=O)N[C@@H](CC(N)=O)C(=O)N[C@H](C(=O)NCC(=O)N[C@@H](Cc1c[nH]cn1)C(=O)N[C@@H](CC(N)=O)C(=O)N[C@H](C(=O)N[C@@H](Cc1ccc(O)cc1)C(N)=O)[C@@H](C)O)C(C)C)[C@@H](C)O
notes: also called compound 100
Turning to B6, the “hCTR funct. EC50” value in test [3] came out at 1730 pM.
